Data reported in the domain aggregation screens of Martell et al. (2025).

Assay: soluble fraction after stress (log2 fold change); higher = more stays soluble; pooled small domains, quantitative proteomics
Conditions: stress: 50 degC
Procedure, shortened: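 Each library was heated to 50°C as a stress step. The libraries, made up of small protein domains, were pooled and analysed at high throughput by quantitative proteomics. The reported value is the base-two logarithm of the fold change in each protein's soluble amount after stress, taken as a measure of aggregation propensity. The higher the value, the more protein stays in solution.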

| Sequence | soluble fraction (log2) |
| --- | --- |
| HMRSNIYTEEKLWTVLQDFFQENRYLTISLMRMKFGLSRHMAQKWIDHFIAKGLLVKDGTPRSPIYFLND | -2.3 |
| HMEIGLIRVDSRLIHGQVITKWLNYSKANVIVVVDDELSKDSFMSEIYKASAPNGIIVEILSIDDFMKNT | 0.00544 |
| HMNSEFPFNGGRIVDNVPANRLQIFFDEKPDADVRTRLKQNGFRWAPNSGAWQSYRHGYTLDWARREFNA | 0.134 |
| HMVEKNALSEEIEGYVNKYGKDRSSLMPVLQAIQRKHSYINDFAQQEVARLLDIHPVEVFSVISFYSFLH | -1.79 |
| HMKMAKTIKEIAEEIGVSKQAVFKKIKQVPLSTEIEKFISTVDGKKLVSVDGENLIKQAFQR | 0.325 |
| HMKVMTNAELGRIIKEARIARRMTQSEVVGDFITRNMLSQIENGNAAPSMRTLQYLMDVLDIHINIE | -2.58 |
| HMAENPAYTKGVVNRLYKIRATPYYSYSYNVDQKTYEGRGKQYGEYENLHIGDTITVYYQRSNPSNSEA | -0.414 |
| HMTITIGNSDGGYMKMGADGFEVRFSGSDGGNHYAKMYYNNDGWARLTLGSYGEEKARIDSDGMIQTR | -0.113 |
| HMTTLLNHLKGTRLEAGLSQQALARLAGISRQAYSALESGSSNPSTEVALRLARALKTSVDHLFSLPE | -0.989 |
| HMDKIEVVEVDMSKPYEDMTVTELQNVILDKLASNGPVTNQMKKDVSENIYHDSLVNWAKSF | 0.0697 |
| HMTEGDRLARRILRLVRNKPNGYPEVELMKATVLDWNHFQRSISSLEMAGILERRDPGDGTPPVWVEKR | -0.688 |
| HMGQTYTITINPTPADAKVIIDGVATNSVEAIDGRTLIWSVSKPGYLTKSGNYTVTGKNETLNIVLKEDPD | 0.087 |
| HMNILAPFWERFGLSAFAAGNYDRAEGYFRKLEQKDPNSMSVLRNLGLILMAKGDAEGAEAYLLREEKL | -0.67 |
| HMNSSHRLIGLDPGLRVTGWGIVDAIGTKLVHVANGSVKSQQNAPLATRLLELENGLEEVFDNWQPDFA | 0.148 |
| HMEWNPEKQHLLENYITNYSRQLNDTGLFYKNLDWNYIFNLVGVDDQEFLMLKIDEIYDESINVY | -0.521 |
| HMIDPHGSLTLDLRPRDARVEIIDSNKTYKPGVRLPMGEYAIAVSRRGYISETKRINIEYGDNRERVAL | 0.0829 |
| HMKISDTITEKILTDNNFSMELAKKIGIQQGSLLSSIRRNRDSRILRLWEAVMFYKEQGYTEEEIFTDY | -1.27 |
| HMSSVDLLSERERQVLARISRGMSNEEIAAELAITPRTVRNHLANIYGKIDVHSRAEAVVWARERGIT | 0.0251 |
| HMENTFNENLRRIRKEKKITQEQLAEFVGVSPQAVSKWEMNSFPDASLLPKIAEKLEVSIDELFGLK | 0.000882 |
| HMSIMNEQIREILNQQVTKTSKIQQLLLLGLTRRQVADLVTNGNYGFVQNVYRNMLDAGIFTP | -0.5 |
| HMKRLPFSFAKRFGVVVEDGEPPIVHHRDGASAETLLEVRRRLGQVFTLQRHDAEAFERLLTQAYQR | -0.383 |
| HMDASSAVQFGSLLRDARRRQGLSQAELGGDKYSGSYISHLESGRRVATPEVIEFLSRRLGVSPLEWGVS | -0.0679 |
| HMQVSDLSAIDSLIDKVLSEQQAAVQDFRSGQGKAMGFLIGKVMQASDGKANPKVIRELMGKKLA | 0.159 |

| Sequence | soluble fraction (log2) |
| --- | --- |
| HMEDPLAAQWKQGRKLFHDDYGYGIISKAFTAGDELVIMVQFENGGEKRFLPKYQAHNLLLVEQ | -0.218 |
| HMDKNNLHSVLQDVPGIGPKRMKELMRAFGSVEGMKKAGLEELAAVKGMNHKAAEALIQFFR | 0.199 |
| HMNIETHIVPKLLAPIRLQEYGVGIFNNIPTKSALKKALKKQLITVDKTVATTATFIKGGETIELAYQ | -1.47 |
| HMDRWTPLIVAVLIEGSHRFGELRSAIGGITPKVLTETLRSMERDGLVTRDQVPGVPPRVDYALTPLG | -0.334 |
| HMSEKLLTLNEISEKLRVSRHTVQAWVSPSSPNHRPEFSSLARHAGRKTVFLESDVDAWLAQRR | -0.839 |
| HMDSEQLSGLVNMGFSVYQAKTALEMFDNDIERAANYL | -0.425 |
| HMVSLRQQVYDYLRSQMNQGELRPGSAINLGEMSSRFGISRTPLREALLQLETEGFVTIYPRKGIIVN | -0.793 |
| HMEHGQWLSEAQGASLAADWLARRRGVLPLNARRHLSGLSDQIARQIEGGLSREAGLYTAHEMMESLDP | -0.224 |
| HMKQFVVQYYGIDGEVINSVYKNGMSDLTSYEPEKIDGKNFKGWSLSEDSKKVIDENYRINSDVNLYAVYT | 0.0253 |
| HMNNYFPAYKGSATSIAPALKQMGVNNSYAYRSKIAAVNNITGYRGTPAQNTQMLNLLKQGRLIK | 0.362 |
| HMQSLPFSFAKRHGVLLKSINHLHGEAVYRIGANPLSLSEVQRYAGVPLKLSSITVEKFDRLLQETYEHD | -1.14 |
| HMHPELSDSQRTLIALMASGLKDEAIAVEMGVGARTVRRKVQELYELLGVRTRFQAGVAANQRGW | -1.79 |
| HMATAATGIINNNYVNVRSGPATTYNIVGRLDQGSSIEILGSKNDWYQIKTKQLNGWVKNDFINLQK | 0.00222 |
| HMNITFAENIKQFRKAKSMSMEELGKRLGKAKSSISAWENGKRTPKINELKSISEALGVTISQLLGF | -1.13 |
| HMAAVSSHAVKQRIRSLIQAEDPASPLSDEALRLALSALGVEVSRRAVAKYRTSMDIPASSQRKK | -0.252 |
| HMVTTDPIADMLTRIRNASSQKHKSVDVPASKEKLAIAQILFEEGYIKSFEEIKEENNQGVIRITLKYTEK | -0.0766 |
| HMENRREYQKAIDYLSDQIRAGTLTVGSRLPTERAIAEALGISRNSTREALRTMENMGMIESKQGSGHYLT | -0.00154 |
| HMSLQEISDLISQAERADQEQLKEVLKQLHQVESGNQPMSKGFLSSALSTLNKYPALITSIGQLLFKLAT | 0.00954 |
| HMTPKTSVPKPGQTVVVRKGDTIYALARIHDITPADLIAWNRLDNPSQIYPGQVIRLYPQGA | -0.107 |
| HMANNPISMIKIRQILRLHIQGRSKLQIAAQTGISRNTLKKYLKEFEASKLTYDEISELSDKDLEDLFIK | -2.02 |
| HMGFTDREREIIRNDLVATGRELFGTFGLKKTSIEDLTKAVGIAQGSFYTFFNSKEELYLEVMDREGEA | -0.851 |
| HMPDPLVEIRSAVHSNYAGMIAMLGADNRVYLGREEHYSYQDGQPGQYDNRDGSLLFVSDQPDIYYFL | -1.44 |
| HMTGEERRMNTADLYRRRGMELFKRKIYVDAIDSLKVSLEYEDNATTRYYLDLATKRYQDLKIS | -1.12 |

| Sequence | soluble fraction (log2) |
| --- | --- |
| HMIDSEEVMETIQDLGYSPVFDVKEKFYKIKEEQIGKITLEVHIILRYGMVDLVWIVRENGELLLG | 0.138 |
| HMQEEFVAPDVKDGAIVLHKAFGEGTVTKIDKAQKHIRVTFGVGEKTFIFPDAFKQGFLRMKG | 0.348 |
| HMDRKEEIIIVTLKLASQIGLSNVSMEQIAKQVGIKKPSLYNHFKSKDEIIDAMYEYLREKSKN | -0.869 |
| HMNDREAAYEDLPDELVRVGQKVFIKSLETEGVIVQPPNKKGEVRVRSGNISTNVKRSDLGLPIEKP | 0.129 |
| HMTDYVPTIGTKISKDFGSKGYFEGEVVSGPHNVTVEGDNMVVWKVQYEDGDREEMTASEIAHWKA | -0.105 |
| HMLLGPDALTNRELDVLALLERRLSNKEIGALLYISPRTVKRHTINIYQKLHVNNRRAAVAQAKALGLMPD | -1.79 |
| HMDREIVEAIVPLEAAGKRFDAALAEMFPEFSRSRLTEWIKAGDALLAGEIVKPKVSVRGGEAVSLSIRV | -0.485 |
| HMTSMYYLNKAVKEGNAKAIRQLLSAGININVRKRETSTPLDFAIKYKQTEIADLLRKHGGKTAEELKAEE | -0.343 |
| HMNKTEIISILEKIVLPTQIRNINIFGSEVIIDLNIDNPSLHAKKKLEKSIINSFDKNHKIIINFNVE | -0.232 |
| HMSKSENLYSAARELIPGGVNSPVRAFTGVGGTPLFIEKADGAYLYDVDGKAYIDYVGSWGPMVLGHNHP | 0.0101 |
| HMLEQSYYEKTDEIIELHGAKASSLIPVMQDVQAEYRYLPGELLSYIADKLGIPLAKAYSVATFYENFS | -0.358 |
| HMRQEIIEDSRKLLEESLKRYDLTYQEFIDTLKSKNMNVESTLINIIKNQSSLDLVLRNLGLIAP | -0.0959 |
| HMNNIPFIITDERLNVIQSHLVPREVLDHPDRLRRQIDRFTEENQPKTVNYWWGPEHRHIIFYGKSK | 0.445 |
| HMSMANKKDFILDTAQKLFMEQGFDQTSISQILEATQIARGTLYYYFSSKEEIMDAIIERTIEQ | -1.05 |
| HMIAKEDDGTAFLIDGKISSEEEFKTISKDDILEVFVYKETEIAQKKLDSINSINNTYYTSLIEILLKE | -0.127 |
| HMKEIPTKKGDMLEIYEANGKYILKYPTFNITMPEVVKEIPKEAVDSYLAGKHDGEELINYANFGFWKS | -0.185 |
| HMEGVSNLIVSVTRVKVTVDLSQAKVYLSIFPSEQAAFYLNALQQNRFQLKHDLSQLLKNQLRRIPTLQF | 0.283 |
| HMTNEAFITPSVLEWAIKRAGVSAESIHKKAEQWVSGKARPTFKQAVDIAKTLQIPFGYLWLKEPPKEQ | -0.551 |
| HMVDLDIENYELEDILNLFRLQYNFVEADLKRAYRMALKLHPDKSGLDGEYFRFYMKAYKIVENIFNFRNR | -1.78 |
| HMSFISRMVVAVEDIALSTRPNSTPSGDKYVSKGTVLLMEKRENDWVEVRQPSSPLSGWAPKTSLLSV | -0.546 |
| HMEKVDAISQSILDVLKKNNGYLAVTDKSDPDEIYGLFQISKKTFKKAIGSLYRDRLISIEEEGIRLR | 0.116 |
| HMQLPTPEDLKKRRNELGLTQSDLAKRAGVSQPLIARIESGDVDPRLSTVRKILDAFEEVEKEQQ | 0.0795 |
| HMPSPEVELLEDLLSKTDEAEVEAAFHENQALVNDEFKAMLGSLIQELSKTQEADPEIIARIRFIQKLT | 0.16 |
